Consider one molecule from paper PMC6331586, “Rapid determination of quaternary protein structures in complex biological samples” (Nature Communications, 2019).

The assay concerns the target human serum albumin (human, UniProt P02768 25-609). As to the kind of experiment: cross-linking. The following applies: both partners purified.

B1: M1 protein (amino acids 42–484), recombinant (domain or fragment)
chain: NGDGNPREVIEDLAANNPAIQNIRLRYENKDLKARLENAMEVAGRDFKRAEELEKAKQALEDQRKDLETKLKELQQDYDLAKESTSWDRQRLEKELEEKKEALELAIDQASRDYHRATALEKELEEKKKALELAIDQASQDYNRANVLEKELETITREQEINRNLLGNAKLELDQLSSEKEQLTIEKAKLEEEKQISDASRQSLRRDLDASREAKKQVEKDLANLTAELDKVKEDKQISDASRQGLRRDLDASREAKKQVEKDLANLTAELDKVKEEKQISDASRQGLRRDLDASREAKKQVEKALEEANSKLAALEKLNKELEESKKLTEKEKAELQAKLEAEAKALKEQLAKQAEELAKLRAGKASDSQTPDTKPGNKAVPGKGQAPQAGTKPNQNKAPMKETKRQLPSTGETANPFFTAAALTVMATAGVAAVVKRKEEN
notes: source: E. coli BL21 (DE3), purified (fibrinogen column, Ni-coupled Imac Sepharose)
On to B1, for which the binding result is “binds”.
